Data taken from article PMC11833078.

How the values were obtained:
[1] = target: Prp19 (Chlamydomonas reinhardtii (endogenous)); assay: cryo-EM structure; endogenous spliceosomes (C* complex) isolated at 4 °C by the same procedure from the Cdc5L-Flag and the Prp19-Flag knock-in strains: anti-FLAG M2 resin (20 mM HEPES-KOH pH 7.9, 150 mM NaCl, 1.5 mM MgCl2, 4% glycerol), FLAG peptide elution, 10-30% glycerol gradient with 0-0.1% glutaraldehyde; two reconstructions at 2.6 Å without obvious differences, one atomic model
[2] = target: Prp19-Flag (Chlamydomonas reinhardtii (endogenous)); assay: as above

| stoichiometry N [1] | stoichiometry N [2] | Substance |
| --- | --- | --- |
| 4 | – | Prp19 (natural protein) |
| – | 4 | Prp19-Flag (natural protein) |
